Earlier results in article PMC12442452.
Read-outs that look alike come from different tables or passages of the source.

Key:
Cys25 [1] = molecular target: T1, Cys25 (UniProt position 147, GQCGSCWAFSA); conditions: ligand-free cruzain
Cys25 [2] = molecular target: T1, Cys25; assay: kinetics; conditions: apo (free) enzyme
His162 = His162 (UniProt position 284, SEQLDHGVLLV); assay: kinetics; conditions: apo (free) enzyme
Cys25 [3] = molecular target: Cys25 (UniProt position 158, GSCGSCWAFSA); conditions: not stated (apo enzyme implied)

In the case of “Cruzain (cruzipain, major cysteine protease) (Trypanosoma cruzi)”, the pKa (Cys25 [1]) is listed as 9.8, the pKa (Cys25 [2]) is listed as 9.7 and the pKa (His162) is listed as 6.6.

In the case of “Papain (Carica papaya (inferred; not stated in the article))”, the pKa (Cys25 [3]) is listed as 3.3.
